What was measured:
[1] = molecular target: Boxer virus (BV, GI.8) P domain, wild type, as P particle (Boxer virus (human norovirus GI.8)); experiment: SEC; gel filtration on Superdex 200 followed by SDS-PAGE; P particles form a peak at 830 kDa
[2] = molecular target: Boxer virus (BV, GI.8) VP1 P domain, Q227-L526 (P dimer) (Boxer virus (human norovirus GI.8)); experiment: crystal structure; P protein at 10 mg/mL (native) or 14 mg/mL with Le^b or Le^y tetrasaccharide, hanging drop, 0.1 mol/L LiCl, 18% PEG 3350, 10% MPD, 16°C; space group P6_(1), two protomers in the asymmetric unit

Substance | efficiency of P particle formation [1] [%] | stoichiometry N [2]
Boxer virus (BV, GI.8) P domain, wild type, as P particle (domain or fragment) | 80 | –
Boxer virus (BV, GI.8) VP1 P domain, Q227-L526 (P dimer) (domain or fragment) | – | 2

From paper PMC4312760
